Measured values published in article PMC6753376 (Molecular Systems Biology, 2019).
One block for each molecule: values may come before it.

Columns and labels:
C3b (human) = C3b (human) (UniProt P01024); experiment: cross-linking; quantitative cross-linking mass spectrometry (QCLMS) of C3b alone; C3b monomer and dimer labelled as in Chen et al, 2016c, in-gel digested with trypsin, then sequential digestion
Mcm6 = target: T1, Mcm6 (S. cerevisiae, UniProt P53091 1-1017); experiment: cross-linking; BS3 cross-linking of 200 ug OCCM complex on pUC19-ARS1 beads, 1:8,100 protein to crosslinker molar ratio, 2 h on ice; sequential digestion, SEC, LC-MS/MS, xiSEARCH, 5% FDR; settings: both partners purified
T1 construct: Mcm6, S. cerevisiae, subunit of MCM2-7 in the OCCM complex; source: in the OCCM complex assembled on pUC19-ARS1 beads as described elsewhere (Evrin et al, 2009)
T1 sequence (P53091 whole entry): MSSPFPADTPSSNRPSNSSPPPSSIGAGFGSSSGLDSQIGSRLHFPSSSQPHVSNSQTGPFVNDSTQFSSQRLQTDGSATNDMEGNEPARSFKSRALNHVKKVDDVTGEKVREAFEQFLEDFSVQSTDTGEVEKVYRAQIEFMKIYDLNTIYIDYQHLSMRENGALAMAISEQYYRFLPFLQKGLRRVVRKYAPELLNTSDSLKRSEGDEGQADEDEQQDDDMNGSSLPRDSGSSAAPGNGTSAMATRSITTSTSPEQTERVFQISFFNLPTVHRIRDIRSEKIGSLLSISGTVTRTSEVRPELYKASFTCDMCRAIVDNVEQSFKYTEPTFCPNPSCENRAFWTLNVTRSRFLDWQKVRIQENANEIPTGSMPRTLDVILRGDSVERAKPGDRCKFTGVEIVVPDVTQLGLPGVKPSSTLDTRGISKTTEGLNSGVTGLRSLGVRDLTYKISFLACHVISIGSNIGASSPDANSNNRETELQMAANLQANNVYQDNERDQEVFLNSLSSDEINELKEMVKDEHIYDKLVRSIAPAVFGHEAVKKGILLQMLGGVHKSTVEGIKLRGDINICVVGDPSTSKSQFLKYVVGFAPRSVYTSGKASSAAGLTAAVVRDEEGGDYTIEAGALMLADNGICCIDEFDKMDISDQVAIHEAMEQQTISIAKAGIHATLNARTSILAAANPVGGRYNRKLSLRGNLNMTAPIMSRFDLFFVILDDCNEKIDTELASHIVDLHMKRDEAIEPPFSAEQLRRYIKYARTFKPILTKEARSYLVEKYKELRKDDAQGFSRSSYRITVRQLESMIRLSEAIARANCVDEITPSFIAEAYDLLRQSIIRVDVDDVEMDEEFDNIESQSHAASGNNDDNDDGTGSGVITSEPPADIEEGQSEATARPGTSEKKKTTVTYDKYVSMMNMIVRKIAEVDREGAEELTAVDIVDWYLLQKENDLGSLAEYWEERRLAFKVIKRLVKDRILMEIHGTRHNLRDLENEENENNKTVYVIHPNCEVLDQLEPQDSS

Mcm2 = target: T2, Mcm2 (S. cerevisiae, UniProt P29469 1-868); experiment: as above; settings: both partners purified
T2 construct: Mcm2, S. cerevisiae, subunit of MCM2-7 in the OCCM complex; the search database held all 14 OCCM subunits; source: in the OCCM complex assembled on pUC19-ARS1 beads as described elsewhere (Evrin et al, 2009)
T2 sequence (looked up): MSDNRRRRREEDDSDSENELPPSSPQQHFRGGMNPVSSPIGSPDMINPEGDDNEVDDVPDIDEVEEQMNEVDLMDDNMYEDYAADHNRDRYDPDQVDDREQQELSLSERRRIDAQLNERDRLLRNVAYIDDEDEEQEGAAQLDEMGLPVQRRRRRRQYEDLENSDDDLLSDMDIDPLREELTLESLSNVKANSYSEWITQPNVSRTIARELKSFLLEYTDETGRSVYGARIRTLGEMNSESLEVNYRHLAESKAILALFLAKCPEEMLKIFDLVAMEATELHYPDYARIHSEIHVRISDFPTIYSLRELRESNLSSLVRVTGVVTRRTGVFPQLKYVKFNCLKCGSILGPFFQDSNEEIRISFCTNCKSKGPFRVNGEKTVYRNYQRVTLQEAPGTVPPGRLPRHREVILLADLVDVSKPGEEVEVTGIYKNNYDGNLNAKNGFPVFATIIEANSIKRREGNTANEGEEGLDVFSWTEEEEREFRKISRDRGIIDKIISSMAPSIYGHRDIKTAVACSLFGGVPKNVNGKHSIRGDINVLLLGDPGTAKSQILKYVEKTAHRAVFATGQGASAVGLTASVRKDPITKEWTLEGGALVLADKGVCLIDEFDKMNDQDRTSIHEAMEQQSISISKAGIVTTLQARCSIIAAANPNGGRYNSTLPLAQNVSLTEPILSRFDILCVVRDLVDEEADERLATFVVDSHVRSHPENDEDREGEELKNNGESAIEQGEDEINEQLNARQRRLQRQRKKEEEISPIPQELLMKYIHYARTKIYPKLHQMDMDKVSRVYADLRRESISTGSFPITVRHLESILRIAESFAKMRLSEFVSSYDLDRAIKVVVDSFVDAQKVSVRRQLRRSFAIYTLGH

stoichiometry N (C3b (human)): 2
Molecule: C3b (from UniProt P01024 749-1663; P01024 749-1663) (natural protein)

binding result (Mcm6): binds
B1: Cdt1 (natural protein, S. cerevisiae, UniProt P47112 1-604, looked up)
chain: MSGTANSRRKEVLRVPVIDLNRVSDEEQLLPVVRAILLQHDTFLLKNYANKAVLDALLAGLTTKDLPDTSQGFDANFTGTLPLEDDVWLEQYIFDTDPQLRFDRKCRNESLCSIYSRLFKLGLFFAQLCVKSVVSSAELQDCISTSHYATKLTRYFNDNGSTHDGADAGATVLPTGDDFQYLFERDYVTFLPTGVLTIFPCAKAIRYKPSTMATTDNSWVSIDEPDCLLFHTGTLLARWSQGMHTTSPLQIDPRANIVSLTIWPPLTTPISSKGEGTIANHLLEQQIKAFPKVAQQYYPRELSILRLQDAMKFVKELFTVCETVLSLNALSRSTGVPPELHVLLPQISSMMKRKIVQDDILKLLTIWSDAYVVELNSRGELTMNLPKRDNLTTLTNKSRTLAFVERAESWYQQVIASKDEIMTDVPAFKINKRRSSSNSKTVLSSKVQTKSSNANALNNSRYLANSKENFMYKEKMPDSQANLMDRLRERERRSAALLSQRQKRYQQFLAMKMTQVFDILFSLTRGQPYTETYLSSLIVDSLQDSNNPIGTKEASEILAGLQGILPMDISVHQVDGGLKVYRWNSLDKNRFSKLLQIHKSKQQD
notes: Cdt1, S. cerevisiae, subunit of the OCCM complex; source: in the OCCM complex assembled on pUC19-ARS1 beads as described elsewhere (Evrin et al, 2009)

binding result (Mcm2): binds
B2: Orc5 (natural protein, S. cerevisiae, UniProt P50874 1-479, looked up)
chain: MNVTTPEVAFREYQTNCLASYISADPDITPSNLILQGYSGTGKTYTLKKYFNANPNLHAVWLEPVELVSWKPLLQAIARTVQYKLKTLYPNIPTTDYDPLQVEEPFLLVKTLHNIFVQYESLQEKTCLFLILDGFDSLQDLDAALFNKYIKLNELLPKDSKINIKFIYTMLETSFLQRYSTHCIPTVMFPRYNVDEVSTILVMSRCGELMEDSCLRKRIIEEQITDCTDDQFQNVAANFIHLIVQAFHSYTGNDIFALNDLIDFKWPKYVSRITKENIFEPLALYKSAIKLFLSTDDNLSENGQGESAITTNRDDLENSQTYDLSIISKYLLIASYICSYLEPRYDASIFSRKTRIIQGRAAYGRRKKKEVNPRYLQPSLFAIERLLAIFQAIFPIQGKAESGSLSALREESLMKANIEVFQNLSELHTLKLIATTMNKNIDYLSPKVRWKVNVPWEIIKEISESVHFNISDYFSDIHE
notes: Orc5, S. cerevisiae, subunit of ORC in the OCCM complex; source: in the OCCM complex assembled on pUC19-ARS1 beads as described elsewhere (Evrin et al, 2009)

binding result (Mcm2): binds
B3: Orc2 (natural protein, S. cerevisiae, UniProt P32833 1-620, looked up)
chain: MLNGEDFVEHNDILSSPAKSRNVTPKRVDPHGERQLRRIHSSKKNLLERISLVGNERKNTSPDPALKPKTPSKAPRKRGRPRKIQEELTDRIKKDEKDTISSKKKRKLDKDTSGNVNEESKTSNNKQVMEKTGIKEKREREKIQVATTTYEDNVTPQTDDNFVSNSPEPPEPATPSKKSLTTNHDFTSPLKQIIMNNLKEYKDSTSPGKLTLSRNFTPTPVPKNKKLYQTSETKSASSFLDTFEGYFDQRKIVRTNAKSRHTMSMAPDVTREEFSLVSNFFNENFQKRPRQKLFEIQKKMFPQYWFELTQGFSLLFYGVGSKRNFLEEFAIDYLSPKIAYSQLAYENELQQNKPVNSIPCLILNGYNPSCNYRDVFKEITDLLVPAELTRSETKYWGNHVILQIQKMIDFYKNQPLDIKLILVVHNLDGPSIRKNTFQTMLSFLSVIRQIAIVASTDHIYAPLLWDNMKAQNYNFVFHDISNFEPSTVESTFQDVMKMGKSDTSSGAEGAKYVLQSLTVNSKKMYKLLIETQMQNMGNLSANTGPKRGTQRTGVELKLFNHLCAADFIASNEIALRSMLREFIEHKMANITKNNSGMEIIWVPYTYAELEKLLKTVLNTL
notes: Orc2, S. cerevisiae, subunit of ORC in the OCCM complex; source: in the OCCM complex assembled on pUC19-ARS1 beads as described elsewhere (Evrin et al, 2009)
